Data on 34 sequences can be found in the supplement of paper PMC9170038.

Data set [1] relates to K4 kissing-loop RNA reporter. As to the kind of experiment: apparent KD of K4 kissing-loop reporter; higher = weaker reporter binding. Particulars: Eterna round: R107. The protocol:
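RNA-MaP round R107: designed RNA switches with theophylline, tryptophan, arginine or FMN aptamers are transcribed on-chip within common flanks. They are titrated with a labelled K4 kissing-loop RNA reporter in RNA-MaP buffer (100 mM Tris pH 7.5, 80 mM KCl, 4 mM MgCl2), without ligand or with the indicated ligand. Median apparent KD per design.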

A further data set concerns MS2 coat protein. As to the kind of experiment: apparent KD of MS2 coat protein; designed switch direction (-1 OFF switch, 1 ON switch): -1; higher = weaker reporter binding. Put shortly:
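Apparent KD, taken as the median over clusters for each design, was obtained by curve-fitting normalised cluster fluorescence. Designed RNA switches had been transcribed on Illumina chips by stalled E. coli RNA polymerase and titrated with SNAP-549-labelled MS2 coat protein, doubling from 0.7 or 1.5 nM to 3 µM.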

Where [2] appears, read: input ligand: theophylline 20 uM.
Where [3] appears, read: input ligand: tryptophan 2.4 mM.
Where [4] appears, read: Eterna round: R95, input ligand: FMN 200 uM.
[5] abbreviates: Eterna round: R95, input ligand: microRNA oligo, concentration not stated.
Where [6] appears, read: Eterna round: R95, input ligand: none.
Where [7] appears, read: input ligand: microRNA oligo, concentration not stated.
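Throughout, for apparent KD of K4 kissing-loop reporter: bound reporter read as fluorescence of individual clusters on recovered sequencing chips by microscopy, with normalized cluster intensities fitted with a binding model.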

As for “AAAACUAUCAGAAGGAGCGUGGAAUAUUCAUCUAUAUUUAAUACGAGUGAUGUUCGUAAUUCACAGGUAGGUCGCUGAUCAAUAA [JR_ExcArginiB_Sub007]”, the “apparent KD of K4 kissing-loop reporter” value in data set [1] (input ligand: FMN 200 uM) turned out to be 214 nM; in data set [1] (input ligand: arginine 13.2 mM), 251 nM; in data set [1] (input ligand: none), 233 nM; in data set [1] (setting [2]), 273 nM; in data set [1] (setting [3]), 171 nM.
“AAAAGAAAGUCGGCCGCCACUCAACGCAGUGAUGUUGCAAGACAGAAGAGCAGUGAUGUUGCCCAGAGGACCGGGACACAAGGCC [Same State Typtophan B GF 3]”: the “apparent KD of K4 kissing-loop reporter” value in data set [1] (input ligand: FMN 200 uM) was found to be 352 nM; in data set [1] (input ligand: arginine 13.2 mM) it was 384 nM; in data set [1] (input ligand: none), 444 nM; in data set [1] (setting [2]), 401 nM; in data set [1] (setting [3]), 309 nM.
For “AAAAGCCAGCAAGGAUAUACGCGCGAAGCAUCCAUGGUGCCAGUUCCAGUGAUGUUGGACCACAUCGUAGAAGGUGCGCGGCUCA [theeternabot_sameState_KL_FMN_B_33]” the same measures were 440 nM, 223 nM, 266 nM, 224 nM and 274 nM.
For “AAAAUAAAUAGCAGUCAUGGAGUGAUGUUCCGAGGACCGGUACGGCCGCCACUCGACCAUCAUAAGAUGGAAUGGCGAGACUGCA [#SwitchBubble 22 #K4Early]”, in that order: 252 nM, 288 nM, 249 nM, 362 nM and 520 nM.
Consider “AAAAUAAAUCAGUGAUGUUGGUAUCCGGAUACCAGCGAUAAUCAUCGCCCUUGGCAGCCGCGGACGUACAAAAUAAGUACGUCCU [MatMod 15 - Jieux - Same State - Theophylline A]”, for which the “apparent KD of K4 kissing-loop reporter” value amounted to 282 nM in data set [1] (input ligand: FMN 200 uM); 89.2 nM in data set [1] (input ligand: arginine 13.2 mM); 218 nM in data set [1] (input ligand: none); 240 nM in data set [1] (setting [2]); 131 nM in data set [1] (setting [3]).
For “AAAAUAACCCAGUGAUGUUGGUAUGCAGAUACCAGCGACGAAAGUCGCCCUUGGCAGCUGUGGACGUACAAAAUAAGUACGUCCU” the same measures were 1230 nM, 834 nM, 1420 nM, 1220 nM and 1520 nM.
For “AAAAUAAUCCAGUGAUGUUGGUAUCCAGAUACCAGCCAGGAAACUGGCCCUUGGCAGCUGGCGACGUACAAAAUAAGUACGUCGU [#OpenEnded 11 #StaticStem #K4Early]”, in that order: 405 nM, 184 nM, 470 nM, 664 nM and 374 nM.
For “AAAAUAAUCCAGUGAUGUUGGUGUCCAGAUACCAGCGACGAAAGUCGCCCUUGGCAGCUGUGGACGUACAAAAUAAGUACGUCCU” the same measures were 476 nM, 331 nM, 559 nM, 251 nM and 431 nM.
Turning to “UUUUAACAUGAGGAUCACCCAUGUCAGGAUAUGGUAUUUUUUUUUUUUUUUUUUUUUUCCAGAAGGGACAUUUU [My solution] (puzzle: Exclusion 1)”, the “apparent KD of MS2 coat protein” value worked out at 16.5 nM with MS2 coat protein (setting [4]), 11.3 nM in the data set with MS2 coat protein (setting [5]) and 15.9 nM in the data set on MS2 coat protein (setting [6]).
Take “UUUUAACAUGAGGAUCACCCAUGUGAGGAUAUCGAAAUUUAUAUUAAUAUUAAUAAAACGAGAAGGCACAUUUU [JMF 4] (puzzle: Exclusion 1)”: in the data set with MS2 coat protein (setting [5]), the “apparent KD of MS2 coat protein” value was determined as 75.1 nM.
Still for that read-out and setting: to “UUUUAACAUGAGGAUCACCCAUGUGAGGAUAUCGAAAUUUAUAUUAAUAUUUAUUAAACGAGAAGGCACAUUUU [JMF 59] (puzzle: Exclusion 1)” belongs 82 nM; to “UUUUAACAUGAGGAUCACCCAUGUGAGGAUAUCGAAAUUUAUAUUAAUAUUUAUUUUACGAGAAGGCACAUUUU [JMF 66] (puzzle: Exclusion 1)”, 104 nM.
Same read-out and setting: to “UUUUAACAUGAGGAUCACCCAUGUGAGGAUAUCGAAAUUUAUAUUAAUAUUUUUAAAACGAGAAGGCACAUUUU [JMF 67] (puzzle: Exclusion 1)” belongs 53.5 nM; to “UUUUAACAUGAGGAUCACCCAUGUGAGGAUAUCGAAAUUUAUAUUAAUAUUUUUAUAUCGAGAAGGCACAUUUU [JMF 72] (puzzle: Exclusion 1)”, 84.7 nM.
For “UUUUAACAUGAGGAUCACCCAUGUGAGGAUAUCGAAAUUUAUAUUUAUAUUAAUAAUUCGAGAAGGCACAUUUU [JMF 77] (puzzle: Exclusion 1)”, in the data set on MS2 coat protein (setting [5]), the “apparent KD of MS2 coat protein” value worked out at 155 nM.
“UUUUAACAUGAGGAUCACCCAUGUGAGGAUAUCGAAUUUUAUAUUAAUAUUAAUAAAACGAGAAGGCACAUUUU [JMF 8] (puzzle: Exclusion 1)”: the figures for the “apparent KD of MS2 coat protein” value in the data set with MS2 coat protein (setting [4]), with MS2 coat protein (setting [5]) and in the data set on MS2 coat protein (setting [6]) were 60.8 nM, 49.6 nM and 49.6 nM, respectively.
On to “UUUUAACAUGAGGAUCACCCAUGUGAGGAUAUCGAUAUUUAUAUUAAUAUUAAUAAAACGAGAAGGCACAUUUU [JMF 7] (puzzle: Exclusion 1)”, for which the “apparent KD of MS2 coat protein” value in the data set with MS2 coat protein (setting [5]) is 65.2 nM.
The same measure, in the same setting: to “UUUUAACAUGAGGAUCACCCAUGUGAGGAUAUCGAUUUUUAUAUUAAUAUUAAUAAAACGAGAAGGCACAUUUU [JMF 11] (puzzle: Exclusion 1)” belongs 123 nM.
The same measure, in the same setting: to “UUUUAACAUGAGGAUCACCCAUGUGAGGAUAUCGUUUUUUAUAUUAAUAUUAAUAAAACGAGAAGGCACAUUUU [JMF 10] (puzzle: Exclusion 1)” belongs 121 nM.
For the sequence “UUUUACAAGCCAGAUCCUCACAUGAGGAUCACCCAUGUGCUCGUCUGUUUUUGUACUAUCACGUUUGUGAUAGUGUU [Level Boss var2-09] (puzzle: Sensor v3, turn-off variant 1)”, the “apparent KD of MS2 coat protein” value in the data set on MS2 coat protein (setting [4]) is 189 nM; in the data set on MS2 coat protein (setting [5]) it was 14.6 nM; in the data set with MS2 coat protein (setting [6]), 189 nM.
Take “UUUUACAGAGGAUAUGCGAAUAAAUAAAACUUUUUUUUUUAACAUGAGGAUCACCCAUGUAGAAGGCUGAUUUU [Ex2 #25] (Eterna round: R97, puzzle: Exclusion 2)”: the “apparent KD of MS2 coat protein” value in the data set on MS2 coat protein (input ligand: FMN 200 uM) amounted to 40 nM; in the data set on MS2 coat protein (input ligand: none), 48.4 nM.
As to “UUUUAGUAAGGAUAUGGUUAGAUCUACUUCGGUAGAUCUAACCAGAAGGUACAUGAGGAUCACCCAUGUAGAUA [Mod of Brourd 19 - Jieux - Exclusion 4] (Eterna round: R97, puzzle: Exclusion 4)”, the entries for the “apparent KD of MS2 coat protein” value in the data set with MS2 coat protein (input ligand: FMN 200 uM) and in the data set with MS2 coat protein (input ligand: none) were 25.2 nM and 25.3 nM, respectively.
For “UUUUGGCAAGCGAGAUCCCACAUGAGGAUCACCCAUGUUGACCAUGGUUUCCAUGGUCAUUUUGCUCGUCUUGUGUG [jl TITIN mod 1] (Eterna round: R97, puzzle: Sensor, turn-off variant 1)” the same measures were 31.3 nM and 31.8 nM.
As for “UUUUGUUUUUUAUUUUUUAACAUGAGGAUCACCCAUGUAACGAGCAGAUCUUCAUGCAAGCUUUUUGCUCGUCUUAU [Sensor v3 - Turn-off variant 1 - 42] (puzzle: Sensor v3, turn-off variant 1)”, the figures for the “apparent KD of MS2 coat protein” value with MS2 coat protein (setting [4]), with MS2 coat protein (setting [5]) and in the data set on MS2 coat protein (setting [6]) were 42.2 nM, 16.1 nM and 60.6 nM, respectively.
Consider “UUUUUACAUGAGGAUCACCCAUGUCAGGAUAUCAUUAUAUUUUAUUAUUUUAUUUAUAUGAGAAGGGACUAUUA [My solution] (Eterna round: R96, puzzle: Exclusion 1)”, for which the figures for the “apparent KD of MS2 coat protein” value in the data set on MS2 coat protein (input ligand: FMN 200 uM), with MS2 coat protein (setting [7]) and in the data set with MS2 coat protein (input ligand: none) were 127 nM, 79.2 nM and 105 nM, respectively.
Take “UUUUUACAUGAGGAUCACCCAUGUCAGGAUAUCAUUAUAUUUUAUUAUUUUAUUUAUAUGAGAAGGGACUAUUA [My solution] (puzzle: Exclusion 1)”: in the data set with MS2 coat protein (setting [5]), the “apparent KD of MS2 coat protein” value worked out at 93.8 nM.
“UUUUUACAUGAGGAUCACCCAUGUGAGGAUAUGAGGGUUAGCUUAAAUGGGCUGACUUUCAGAAGGCACAUGAA [JR_Ex1_Sub059] (Eterna round: R97, puzzle: Exclusion 1)”: the “apparent KD of MS2 coat protein” value came to 280 nM in the data set on MS2 coat protein (input ligand: FMN 200 uM) and 128 nM in the data set on MS2 coat protein (input ligand: none).
As for “UUUUUAUAUGAAGGAUAUACUUAACAUGAGGAUCACCCAUGUGGUGUUGUGAGUGAGUGAGUUUAGUAGAAGGUCAAGUAUUUC [JMF's solution 43] (Eterna round: R96, puzzle: Exclusion NG 2)”, the “apparent KD of MS2 coat protein” value was 752 nM in the data set with MS2 coat protein (input ligand: FMN 200 uM), 329 nM with MS2 coat protein (setting [7]) and 731 nM in the data set on MS2 coat protein (input ligand: none).
For “UUUUUAUAUGAAGGAUAUACUUAACAUGAGGAUCACCCAUGUGGUGUUGUGAGUGAGUGAGUUUAGUAGAAGGUCAUUUCUUUU [JMF's solution 78] (Eterna round: R96, puzzle: Exclusion NG 2)” the same measures were 440 nM, 411 nM and 462 nM.
As to “UUUUUCAGGCCAGAUCCUCACAUGAGGAUCACCCAUGUGCUCGUCUGUUUUCGCUCUUUCUUUUUUUUGGUUGUGCU [Level Boss var2-18] (puzzle: Sensor v3, turn-off variant 1)”, the figures for the “apparent KD of MS2 coat protein” value in the data set with MS2 coat protein (setting [4]), with MS2 coat protein (setting [5]) and in the data set with MS2 coat protein (setting [6]) were 174 nM, 31.2 nM and 259 nM, respectively.
Regarding “UUUUUCUGGCAAGGAUAUCCUGUGCGGUUCCGGCUCGUGUCUGUUACAUGAGGAUCACCCAUGUGGGAGAAGGUGCCUGUGGUU [Design 88] (Eterna round: R96, puzzle: Exclusion NG 2)”, the “apparent KD of MS2 coat protein” value in the data set with MS2 coat protein (input ligand: FMN 200 uM) was 94.2 nM; with MS2 coat protein (setting [7]) it was 26.9 nM; with MS2 coat protein (input ligand: none), 35.3 nM.
For “UUUUUGUAUGAAGGAUAUACUUAACAUGAGGAUCACCCAUGUGGUGUUGUGAGUGAGUGAGUUUAGUAGAAGGUCAAUUAUUUU [JMF's solution 24] (Eterna round: R96, puzzle: Exclusion NG 2)”, in that order: 843 nM, 346 nM and 361 nM.
As to “UUUUUUUUGUUUUUUGUUUACAUGAGGAUCACCCAUGUGACGAGUUUAUGGGUGAACAAGCUUUUUGCUCGUCUUAU [Sensor v3 - Turn-off variant 1 - 5] (puzzle: Sensor v3, turn-off variant 1)”, the “apparent KD of MS2 coat protein” value with MS2 coat protein (setting [4]) is 52.4 nM; in the data set on MS2 coat protein (setting [5]), 17.8 nM; with MS2 coat protein (setting [6]), 140 nM.
For “UUUUUUUUUGUGAGGAUAUACUUUUUUUUUUUUUUGUAGAAGGCACAUGAGGAUCACCCAUGUUUUUUUUUCUC [JR_BME4_Sub029] (puzzle: Brourd's mod of Exclusion 4)”, the “apparent KD of MS2 coat protein” value in the data set on MS2 coat protein (setting [5]) is 13.2 nM.
